According to USRE48267E1, “Variants of C-type natriuretic peptide” (priority 2009, dated 2020):
*1 amine or outer side, *2 acyl side, *3 side chain or, on linkers, in order; H or OH if unused. Where a SMILES comes first, the peptide text is derived from it. Bridges are numbered along the chain shown (N, C = ends). Where no end group is shown, it is not given here. [ ]: non-standard residue; d: D form. X1 = O=C(C(CN[*:1])c1ccccc1)[*:2]; NMeL = CN[C@@H](CC(C)C)C(=O)O; Tle = CC(C)(C)[C@H](N)C(=O)O

T1: NPR-B (natriuretic peptide receptor B), murine, expressed endogenously on NIH3T3 cells (murine, UniProt Q6VVW5 17-1047)
T1 sequence (looked up): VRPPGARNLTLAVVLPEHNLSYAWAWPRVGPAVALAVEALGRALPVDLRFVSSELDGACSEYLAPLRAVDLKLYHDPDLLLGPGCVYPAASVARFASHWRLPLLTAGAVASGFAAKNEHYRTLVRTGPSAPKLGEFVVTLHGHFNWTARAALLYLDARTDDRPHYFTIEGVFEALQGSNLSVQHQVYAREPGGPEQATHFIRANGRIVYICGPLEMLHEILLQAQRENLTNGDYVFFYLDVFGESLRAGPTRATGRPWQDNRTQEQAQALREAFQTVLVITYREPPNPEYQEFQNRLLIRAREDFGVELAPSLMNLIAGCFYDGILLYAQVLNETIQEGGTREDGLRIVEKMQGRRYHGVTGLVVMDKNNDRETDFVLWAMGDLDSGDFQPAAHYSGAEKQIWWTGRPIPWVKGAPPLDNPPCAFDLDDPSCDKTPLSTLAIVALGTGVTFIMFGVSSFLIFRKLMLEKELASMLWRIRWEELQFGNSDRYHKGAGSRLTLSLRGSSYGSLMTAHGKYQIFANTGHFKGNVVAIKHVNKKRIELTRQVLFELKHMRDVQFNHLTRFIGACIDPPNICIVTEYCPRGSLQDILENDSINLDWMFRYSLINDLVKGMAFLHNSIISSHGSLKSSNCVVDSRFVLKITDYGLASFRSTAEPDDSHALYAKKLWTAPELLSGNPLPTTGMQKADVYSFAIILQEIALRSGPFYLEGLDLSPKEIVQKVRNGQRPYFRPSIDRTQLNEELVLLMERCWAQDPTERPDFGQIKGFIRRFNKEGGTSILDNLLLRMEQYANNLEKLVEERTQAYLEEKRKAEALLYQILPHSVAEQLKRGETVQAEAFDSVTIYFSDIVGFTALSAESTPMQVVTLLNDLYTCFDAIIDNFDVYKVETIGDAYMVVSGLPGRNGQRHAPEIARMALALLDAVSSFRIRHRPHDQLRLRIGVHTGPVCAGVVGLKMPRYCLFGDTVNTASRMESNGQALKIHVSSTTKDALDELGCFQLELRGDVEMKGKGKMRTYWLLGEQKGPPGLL

B1: CNP22, t-butyl-G8 (peptide)
peptide: GLSKGCF[Tle]LKLDRIGSMSGLGC
modifications: ends and bridges not checked
B2: D-CNP22 (all D-amino acids) (peptide)
peptide: G[dL][dS][dK]G[dC][dF]G[dL][dK][dL][dD][dR][dI]G[dS][dM][dS]G[dL]G[dC]
modifications: ends and bridges not checked
B3: CNP22, N-methyl-L9, N-methyl-L11, N-methyl-L20 (peptide)
peptide: GLSKGCFG[NMeL]K[NMeL]DRIGSMSG[NMeL]GC
modifications: ends and bridges not checked
B4: CNP22, N-methyl-L20 (peptide)
peptide: GLSKGCFGLKLDRIGSMSG[NMeL]GC
modifications: ends and bridges not checked
B5: CNP22, N-methyl-L11 (peptide)
peptide: GLSKGCFGLK[NMeL]DRIGSMSGLGC
modifications: ends and bridges not checked
B6: CNP22, N-methyl-L9, N-methyl-L11 (peptide)
peptide: GLSKGCFG[NMeL]K[NMeL]DRIGSMSGLGC
modifications: ends and bridges not checked
B7: CNP22, D-F7 (D-Phe) (peptide)
peptide: GLSKGCXGLKLDRIGSMSGLGC
modifications: D-Phe at 7
B8: CNP22, C6-CH2-NH (reduced carbonyl) (peptide)
peptide: GLSKGCFGLKLDRIGSMSGLGC
modifications: ends and bridges not checked; also: backbone C=O of Cys6 reduced to CH2 (C6-CH2-NH isostere)
B9: CNP22, 3-chloro-F7 (peptide)
peptide: GLSKGCXGLKLDRIGSMSGLGC
modifications: 3-Cl-Phe at 7
B10: CNP22, N-methyl-L9, N-methyl-L20 (peptide)
peptide: GLSKGCFG[NMeL]KLDRIGSMSG[NMeL]GC
modifications: ends and bridges not checked
B11: CNP22, N-methyl-L9 (peptide)
peptide: GLSKGCFG[NMeL]KLDRIGSMSGLGC
modifications: ends and bridges not checked

Legend:
[1] = target: neutral endopeptidase (NEP) (Homo sapiens, UniProt P08473); test: in vitro NEP cleavage assay (disappearance of non-cleaved CNP variant); conditions: human, pH 7
Chain of neutral endopeptidase (NEP) (P08473 whole entry): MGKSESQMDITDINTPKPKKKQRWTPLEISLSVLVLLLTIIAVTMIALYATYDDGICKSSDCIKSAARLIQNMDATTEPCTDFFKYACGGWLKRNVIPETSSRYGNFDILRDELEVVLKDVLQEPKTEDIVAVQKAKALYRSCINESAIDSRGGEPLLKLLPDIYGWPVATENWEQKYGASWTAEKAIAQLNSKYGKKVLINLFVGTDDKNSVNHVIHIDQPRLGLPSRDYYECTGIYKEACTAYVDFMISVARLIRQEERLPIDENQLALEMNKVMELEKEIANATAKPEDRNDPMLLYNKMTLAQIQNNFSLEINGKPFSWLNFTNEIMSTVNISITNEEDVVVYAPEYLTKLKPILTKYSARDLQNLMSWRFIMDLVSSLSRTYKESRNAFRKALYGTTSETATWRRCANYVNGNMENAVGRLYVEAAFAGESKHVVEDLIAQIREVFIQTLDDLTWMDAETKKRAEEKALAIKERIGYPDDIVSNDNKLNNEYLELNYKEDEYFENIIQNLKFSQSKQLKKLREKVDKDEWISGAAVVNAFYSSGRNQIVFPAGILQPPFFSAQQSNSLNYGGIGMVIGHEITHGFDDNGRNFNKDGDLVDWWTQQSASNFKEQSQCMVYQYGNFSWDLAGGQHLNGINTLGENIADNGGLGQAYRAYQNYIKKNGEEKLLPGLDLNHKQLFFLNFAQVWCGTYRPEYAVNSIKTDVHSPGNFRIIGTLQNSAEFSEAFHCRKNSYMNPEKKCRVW
Outline: (§1)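 Recombinant human NEP (1 ug/mL final) incubated with 100 uM CNP variant in 0.1 M Tris, pH 7, at 37° C for various times, then quenched with EDTA (10 mM final) and heat. Samples reduced and analysed by HPLC and mass spectrometry. Half-life derived from loss of intact variant over time.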

[2] = target: Recombinant human NEP (Homo sapiens, UniProt P08473); test: as above
Chain of Recombinant human NEP (P08473 whole entry): as above
Outline: as §1

[3] = pharmacokinetics in rats (plasma CNP immunoreactivity by RIA); assay type: in vivo, rat; conditions: male, rat, plasma, iv, i.v. 20 nmol/kg
Experimental: Recombinant wild-type CNP22, CNP37 and PEO24-GANRR-CNP22 […]) (SEQ ID NO: 36) were evaluated. […] Standard and QC samples were prepared. […] Plasma CNP immunoreactivity was employed for pharmacokinetics (PK) analysis. PK analysis was performed using WINNONLIN® Professional (Pharsight Corporation).

[4] = target: T1, NPR-B (natriuretic peptide receptor B), …; test: cell-based or functional assay

| Molecule | cGMP response rel. to 1 uM CNP22; 10 nM peptide, NIH3T3 cells [4] | cGMP response rel. to 1 uM CNP22; 1 uM peptide, NIH3T3 cells [4] | other results |
| --- | --- | --- | --- |
| CC[C@H](C)[C@@H]1NC(=O)[C@H](CCCNC(=N)N)NC(=O)[C@H](CC(=O)O)NC(=O)[C@H](CC(C)C)NC(=O)[C@H](CCCCN)NC(=O)[C@H](CC(C)C)NC(=O)CNC(=O)C(c2ccccc2)CNC(=O)[C@@H](NC(=O)CNC(=O)[C@H](CCCCN)NC(=O)[C@H](CO)NC(=O)[C@H](CC(C)C)NC(=O)CN)CSSC[C@@H](C(=O)O)NC(=O)CNC(=O)[C@H](CC(C)C)NC(=O)CNC(=O)[C@H](CO)NC(=O)[C@H](CCSC)NC(=O)[C@H](CO)NC(=O)CNC1=O (stereo partly shown) [Analog H] (H-GLSKGC[X1]GLKLDRIGSMSGLGC-OH; disulfide 6-22) | – | – | half-life at 100 uM ([1]; recombinant human NEP (neutral endopeptidase)): 1.33 h; resistance to cleavage at the Cys6-Phe7 bond relative to wtCNP22 [2]: resistance or improved resistance |
| CC[C@H](C)[C@@H]1NC(=O)[C@H](CCCNC(=N)N)NC(=O)[C@H](CC(=O)O)NC(=O)[C@H](CC(C)C)NC(=O)[C@H](CCCCN)NC(=O)[C@H](CC(C)C)NC(=O)CNC(=O)[C@H](Cc2ccccc2)NC[C@@H](NC(=O)CNC(=O)[C@H](CCCCN)NC(=O)[C@H](CO)NC(=O)[C@H](CC(C)C)NC(=O)CN)CSSC[C@@H](C(=O)O)NC(=O)CNC(=O)[C@H](CC(C)C)NC(=O)CNC(=O)[C@H](CO)NC(=O)[C@H](CCSC)NC(=O)[C@H](CO)NC(=O)CNC1=O [Analog A] | – | – | half-life at 100 uM [1]: 0.917 h; resistance to cleavage at the Cys6-Phe7 bond relative to wtCNP22 [2]: resistance or improved resistance |
| CC[C@H](C)[C@@H]1NC(=O)[C@H](CCCNC(=N)N)NC(=O)[C@H](CC(=O)O)NC(=O)[C@H](CC(C)C)NC(=O)[C@H](CCCCN)NC(=O)[C@H](CC(C)C)NC(=O)CNC(=O)[C@H](Cc2ccccc2)NC(=O)[C@@H](NC(=O)CNC(=O)[C@H](CCCCN)NC(=O)[C@H](CO)NC(=O)[C@H](CC(C)C)NC(=O)CNC(=O)CCOCCOCCOCCOCCOCCOCCOCCOCCOCCOCCOCCOC)CSSC[C@@H](C(=O)O)NC(=O)CNC(=O)[C@H](CC(C)C)NC(=O)CNC(=O)[C@H](CO)NC(=O)[C@H](CCSC)NC(=O)[C@H](CO)NC(=O)CNC1=O [PEO12-CNP22] | – | – | half-life at 100 uM [1]: 2.67 h |
| CC[C@H](C)[C@@H]1NC(=O)[C@H](CCCNC(=N)N)NC(=O)[C@H](CC(=O)O)NC(=O)[C@H](CC(C)C)NC(=O)[C@H](CCCCN)NC(=O)[C@H](CC(C)C)NC(=O)CNC(=O)[C@H](Cc2ccccc2)NC(=O)[C@@H](NC(=O)CNC(=O)[C@H](CCCCN)NC(=O)[C@H](CO)NC(=O)[C@H](CC(C)C)NC(=O)CNC(=O)CCCC(=O)NCCOCCOCCOCCOCCC(=O)NC(COCCC(=O)NCCOCCOCCOCCOCCOCCOCCOCCOCCOCCOCCOC)(COCCC(=O)NCCOCCOCCOCCOCCOCCOCCOCCOCCOCCOCCOC)COCCC(=O)NCCOCCOCCOCCOCCOCCOCCOCCOCCOCCOCCOC)CSSC[C@@H](C(=O)O)NC(=O)CNC(=O)[C@H](CC(C)C)NC(=O)CNC(=O)[C@H](CO)NC(=O)[C@H](CCSC)NC(=O)[C@H](CO)NC(=O)CNC1=O [PEO4-(PEO12)3(branched)-CNP22] | – | – | half-life at 100 uM [1]: > 2.67 h |
| CC[C@H](C)[C@@H]1NC(=O)[C@H](CCCNC(=N)N)NC(=O)[C@H](CC(=O)O)NC(=O)[C@H](CC(C)C)NC(=O)[C@H](CCCCN)NC(=O)[C@H](CC(C)C)NC(=O)CNC(=O)[C@H](Cc2ccccc2)NC(=O)[C@@H](NC(=O)CNC(=O)[C@H](CCCCN)NC(=O)[C@H](CO)NC(=O)[C@H](CC(C)C)NC(=O)CNC(=O)[C@H](CCCCN)NC(=O)[C@H](CCCCN)NC(=O)[C@H](CC(N)=O)NC(=O)[C@H](C)NC(=O)CNC(=O)[C@H](CCCCN)NC(=O)[C@H](Cc2ccc(O)cc2)NC(=O)[C@H](CCCCN)NC(=O)[C@H](CCCNC(=N)N)NC(=O)[C@H](C)NC(=O)[C@H](CC(N)=O)NC(=O)[C@@H]2CCCN2C(=O)[C@H](Cc2c[nH]cn2)NC(=O)[C@H](CCC(=O)O)NC(=O)[C@@H](N)CCC(N)=O)CSSC[C@@H](C(=O)O)NC(=O)CNC(=O)[C@H](CC(C)C)NC(=O)CNC(=O)[C@H](CO)NC(=O)[C@H](CCSC)NC(=O)[C@H](CO)NC(=O)CNC1=O [Analog BL] | – | – | AUC ([3]; read-out: area under the curve, AUC (converted)): 0.026 µM·h; half-life ([3]; read-out: half-life, T1/2): 0.825 h |
| CC[C@H](C)[C@@H]1NC(=O)[C@H](CCCNC(=N)N)NC(=O)[C@H](CC(=O)O)NC(=O)[C@H](CC(C)C)NC(=O)[C@H](CCCCN)NC(=O)[C@H](CC(C)C)NC(=O)CNC(=O)[C@H](Cc2ccccc2)NC(=O)[C@@H](NC(=O)CNC(=O)CNC(=O)[C@H](CO)NC(=O)[C@H](CC(C)C)NC(=O)CN)CSSC[C@@H](C(=O)O)NC(=O)CNC(=O)[C@H](CC(C)C)NC(=O)CNC(=O)[C@H](CO)NC(=O)[C@H](CCSC)NC(=O)[C@H](CO)NC(=O)CNC1=O [Analog P, CNP22, K4G] (H-GLSGGCFGLKLDRIGSMSGLGC-OH; disulfide 6-22) | – | – | half-life at 100 uM ([1]; recombinant human neutral endopeptidase (NEP)): 1.13 h |
| B1 | 2 rel. to 1 uM CNP22 (100) | 18 rel. to 1 uM CNP22 (100) | – |
| B2 | 2 rel. to 1 uM CNP22 (100) | 1 rel. to 1 uM CNP22 (100) | – |
| B3 | 18 rel. to 1 uM CNP22 (100) | 10 rel. to 1 uM CNP22 (100) | – |
| B4 | 2 rel. to 1 uM CNP22 (100) | 5 rel. to 1 uM CNP22 (100) | – |
| B5 | 10 rel. to 1 uM CNP22 (100) | 51 rel. to 1 uM CNP22 (100) | – |
| B6 | 1 rel. to 1 uM CNP22 (100) | 11 rel. to 1 uM CNP22 (100) | – |
| B7 | 2 rel. to 1 uM CNP22 (100) | 6 rel. to 1 uM CNP22 (100) | – |
| B8 | 6 rel. to 1 uM CNP22 (100) | 66 rel. to 1 uM CNP22 (100) | – |
| B9 | 17 rel. to 1 uM CNP22 (100) | 93 rel. to 1 uM CNP22 (100) | – |
| B10 | 1 rel. to 1 uM CNP22 (100) | 1 rel. to 1 uM CNP22 (100) | – |
| B11 | 2 rel. to 1 uM CNP22 (100) | 8 rel. to 1 uM CNP22 (100) | – |
